This data set in a line: soluble on expression in E. coli; label from the status in PepcDB or PDB records.
For the sequence “MARFSIEGKSLKLDAITTEDEKSVFAVLLEDDSVKEIVLSGNTIGTEAARWLSENIASKKDLEIAEFSDIFTGRVKDEIPEALRLLLQALLKCPKLHTVRLSDNAFGPTAQEPLIDFLSKHTPLEHLYLHNNGLGPQAGAKIARALQELAVNKKAKNAPPLRSIICGRNRLENGSMKEWAKTFQSHRLLHTVKMVQNGIRPEGIEHLLLEGLAYCQELKVLDLQDNTFTHLGSSALAIALKSWPNLRELGLNDCLLSARGAAAVVDAFSKLENIGLQTLRLQYNEIELDAVRTLKTVIDEKMPDLLFLELNGNRFSEEDDVVDEIREVFSTRGRGELDELDDMEELTDEEEEDEEEEAESQSPEPETSEEEKEDKELADELSKAHI”, the “soluble on expression in E. coli” value is listed as “soluble”.

Consider “MARHKCQDCGKTFDLKRYLTKHELRMHKNVVKSKNDRSASDPLKCSMCDKVFPRLSHLQRHQMTHLNVRNYSCTFCEEKFVQKSHLTRHVSRKHSNAPGVEVDWTACDKCGQLFKTTYEMRIHRQTYHELHKCKQCQEVIEAGSDGLRKHHMQCRKYSNVCDECGASFSRPADLVSHETSCLKKFAFVCKPCDSYFRQRVQLDRHIKKAHFHPTKCSKCEQISDTPVQNSRHSLECVKVIICGYCSLKNPDKNHVATVHWHRLKRAVSKSVTIRHKLKDAPIADKDVPSSSGQSSLEEEILDDSEDDLEDTGEGLSNREQFKNRDIKRENNLEEVKSSTDNRDEEDSLFNFPDTSTSQLDFCSTAFTEDDSFPGDYVTLSICPKNTDLSFDLRDRLPPELSELFPELEATSIVLLNKSIRCRMTVRVPVCIPKSSTQEAEMRKWLDMTVVLKDD”, for which the “soluble on expression in E. coli” value is recorded as “not soluble”.

On to “MARIGIRYAEYSAMTVLRYLQAYPPHLQAQVRQMIDSDRLGEYLQRRYPDRHDVQSDKALYGYAQDLRQQYLRSAPNLDKVLFDSRLDLTHRALGLNTAVSRVQGGKLKAKKEIRIASLFKEAAPQFLRMIVVHELAHLRERDHNKAFYQLCQHMEPDYHQLEFDLRVYLTYRELPGNLLEHHHHHH”, for which the “soluble on expression in E. coli” value was “not soluble”.

In the case of “MARKRIITPEKKELIRNLISEYNITSAKDLQEALKDLLGDTIQNMLEAELDEHLGYEKYESTEEAKSNYRNGYTSKTLKSSVGQVEIDIPRDRNAEFEPKIVPRYKRDISEIENKIIAMYARGMSTREINEQIQEIYGFEVSAEMVSKITDKILPEIEEWQKRPLGEVIR”, the “soluble on expression in E. coli” value is recorded as “soluble”.

“MARLEVPRPATFVTLTGFMGVGKSRIGRELARALMLHFIDLDRYIERRTGISIPDIFRHLGEEAFRRMEKEAVRELVGKDYLVLSLGGGTFMDPESQKALLGRGPVVALWASPETILERAMRKPGERPLLQVENPLERIRTLLEARAPVYRKAHIHVSTDGRRVEEVVEEIVEKLWRHAEARGA”: the “soluble on expression in E. coli” value is “soluble”.

For “MARNVKGYASTLTWTITRNTLNFLWEQGFKMRINREEILDLMKNAPLKELGQRALRVKQRLHPENLTTFIVDRNINYTNICFVDCKFCAFKRTLKEKDAYVLSYEEIDQKIEELLAIGGTQILFQGGVHPQLKIDYYENLVSHIAQKFPTITIHGFSAVEIDYISKISKLSLKEVLERLKNAGLSSIPGAGAEVLSDRVRDVIAPKKLSSDRWIEVHRMAHLCGIKSTATMMFGSVDNEEDVVEHLQRVRDLQDETGGFRAFILWSFQPNNTPLKEEIPSIKKASSNRYLRYLACSRIFLDNIQNIQSSWVTQGSMIGQLALLFGANDLGSVMMEENVVKAAGTSFCMNEAGMIELIEDIGSVAAKRNTAYEILKRYPAKAKV”, the “soluble on expression in E. coli” value is “not soluble”.

On to “MARPIATHDNTFTKAYLQQHCGDLLSFDGQGDLSGWLDDVLTGAGRLNESMASNTKPVSPYLILTQLLTHDTLTVSAVQESLSRKRVALGEPMVSTRYARYVYATVVSASKSVQYHASKAGS”, for which the “soluble on expression in E. coli” value is “not soluble”.

For the sequence “MARSITMQQRIEFGDCNPAGIVWYPNYHRWLDAASRNYFIKCGLPPWRQTVVERGIVGTPIVSCNASFVCTASYDDVLTIETCIKEWRRKSFVQRHSVSRTTPGGDVQLVMRADEIRVFAMNDGERLRAIEVPADYIELCS”, the “soluble on expression in E. coli” value was “soluble”.

With “MARTVNLKGNPVTLVGPELKVGDRAPEAVVVTKDLQEKIVGGAKDVVQVIITVPSLDTPVCETETKKFNEIMAGMEGVDVTVVSMDLPFAQKRFCESFNIQNVTVASDFRYRDMEKYGVLIGEGALKGILARAVFIIDKEGKVAYVQLVPEITEEPNYDEVVNKVKELI”, the “soluble on expression in E. coli” value is listed as “not soluble”.

With “MARVVVDAQAARAIGKGAMIVFKKGVVRVEGDIKPGDIVEVYTRGGKFLGKGFANPNSNIMVRIVTKDKDVEINKDLFKRRIKKANEYRKKVLKYTNVYRMVYGEADYLPGLIVDRFNDIASLQISSAGMERFKLDVAEAIMEVEPGIETVFEKNTGRSRRREGLPEIERVLLGKEKYRTIIQEGRAKFIVDMRGQKTGFFLDQRENRLALEKWVQPGDRVLDVFTYTGGFAIHAAIAGADEVIGIDKSPRAIETAKENAKLNGVEDRMKFIVGSAFEEMEKLQKKGEKFDIVVLDPPAFVQHEKDLKAGLRAYFNVNFAGLNLVKDGGILVTCSCSQHVDLQMFKDMIIAAGAKAGKFLKMLEPYRTQAPDHPILMASKDTEYLKCLFLYVEDMR”, the “soluble on expression in E. coli” value is reported as “soluble”.

For “MASDGVVVEIGKVTGSVGTTVEIPVYFRGVPSKGIANCDFVFRYDPNVLEIIGIDPGDIIVDPNPTKSFDTAIYPDRKIIVFLFAEDSGTGAYAITKDGVFAKIRATVKSSAPGYITFDEVGGFADNDLVEQKVSFIDGGVNVGNATPTKGATPTNTATPTK”, the “soluble on expression in E. coli” value was “soluble”.

Regarding “MASETVSNHQEKALALLQADAEKILRLIKVQMDHLTMPQCPLYEEVLDTQMFGLSREVDFAVRLGLIAEEQGKVMLGELERELSALHEAFTNKQQ”, the “soluble on expression in E. coli” value is reported as “not soluble”.

With “MASGRARCTRKLRNWVVEQVESGQFPGVCWDDTAKTMFRIPWKHAGKQDFREDQDAAFFKAWAIFKGKYKEGDTGGPAVWKTRLRCALNKSSEFKEVPERGRMDVAEPYKVYQLLPPGIVSGQPGTQKVPSKRQHSSVSSERKEEEDAMQNCTLSPSVLQDSLNNEEEGASGGAVHSDIGSSSSSSSPEPQEVTDTTEAPFQGDQRSLEFLLPPEPDYSLLLTFIYNGRVVGEAQVQSLDCRLVAEPSGSESSMEQVLFPKPGPLEPTQRLLSQLERGILVASNPRGLFVQRLCPIPISWNAPQAPPGPGPHLLPSNECVELFRTAYFCRDLVRYFQGLGPPPKFQVTLNFWEESHGSSHTPQNLITVKMEQAFARYLLEQTPEQQAAILSLV”, the “soluble on expression in E. coli” value was “soluble”.

For “MASGVTVNDEVIKVFNDMKVRKSSTPEEIKKRKKAVLFCLSDDKKQIIVEEAKQILVGDIGDTVEDPYTAFVKLLPLNDCRYALYDATYETKESKKEDLVFIFWAPESAPLKSKMIYASSKDAIKKKFTGIKHEWQVNGLDDIKDRSTLGEKLGGNVVVSLEGKPL”, the “soluble on expression in E. coli” value is “soluble”.

“MASIAYGNNNYVIVKRDGKILTSSDGHEWKEKYFLQGGSFTSVTYNGNMFVAAGAYTVALPYGGPLTYGKCVIMTSPDGNNWQLQDAGYNADLKGITWSGKKFAVAGTNIILSSENGITWNAVEVNAILHDIAFGNGIFAAVGYDGVIMSSVDGEHWETKVEALRYDLTNIVWYDNKFIAIGSGSTPSIVVSGDGKTRVARGPKDASYKCDSSLHNVEWRKTGCSRLRQYYSDRRAKGYS”: the “soluble on expression in E. coli” value is “soluble”.

Turning to “MASIKKVYRGMKNGAETINDDLEAINSELTSGGNVVHKTGDETIAGKKTFTGNVEVNGSLTLPVQTLTVEAGNGLQLQLTKKNNDLVIVRFFGSVSNIQKGWNMSGTWVDRPFRPAAVQSLVGHFAGRDTSFHIDINPNGSITWWGANIDKTPIATRGNGSYFIK”, the “soluble on expression in E. coli” value is on record as “soluble”.

Turning to “MASLAAVVRALLRRESQRATGYALREWTMLTARHLPYLQGQLTLGRIAAVGHLQRSTLGRSEWHTSSAPLFGEGRGRWHWGLSTSDVVDGSDHEHHSTETGGRELPSFKTGELGSDVDGDRAALEAWLAQIRDETSGWPELSLDALRDELDEELEGDDDDNDDDDDETYENEELLKALQEAVNRHRTPVVALVSGRVVHLRRTAAPKRSPRAGRVPRNEPQTTSRDTTKADANDNECT”, the “soluble on expression in E. coli” value is listed as “soluble”.

Regarding “MASMQKLINSVQNYAWGSKTALTELYGIANPQQQPMAELWMGAHPKSSSRITTANGETVSLRDAIEKNKTAMLGEAVANRFGELPFLFKVLCAAQPLSIQVHPNKRNSEIGFAKENAAGIPMDAAERNYKDPNHKPELVFALTPFLAMNAFREFSDIVSLLQPVAGAHSAIAHFLQVPNAERLSQLFASLLNMQGEEKSRALAVLKAALNSQQGEPWQTIRVISEYYPDDSGLFSPLLLNVVKLNPGEAMFLFAETPHAYLQGVALEVMANSDNVLRAGLTPKYIDIPELVANVKFEPKPAGELLTAPVKSGAELDFPIPVDDFAFSLHDLALQETSIGQHSAAILFCVEGEAVLRKDEQRLVLKPGESAFIGADESPVNASGTGRLARVYNKL”, the “soluble on expression in E. coli” value was “soluble”.

For the sequence “MASMTGGNNMGRGSMGAMDQEIGTVTDTKMDPRDFLQLLKINAEKAEKNLPLDQKRAGMEALCERFPRAEGVELTLTDLGGVPCIRQATDGAGAAHILYFHGGGYISGSPSTHLVLTTQLAKQSSATLWSLDYRLAPENPFPAAVDDCVAAYRALLKTAGSADRIIIAGDSAGGGLTTASMLKAKEDGLPMPAGLVMLSPFVDLTLSRWSNSNLADRDFLAEPDTLGEMSELYVGGEDRKNPLISPVYADLSGLPEMLIHVGSEEALLSDSTTLAERAGAAGVSVELKIWPDMPHVFQMYGKFVNAADISIKEICHWISARISKLAAALEHHHHHH”, the “soluble on expression in E. coli” value is “soluble”.

On to “MASQVSQMPSSSPLSSNKDEMRPKADFQPSIWGDLFLNCPDKNIDAETEKRHQQLKEEVRKMIVAPMANSTQKLAFIDSVQRLGVSYHFTKEIEDELENIYHNNNDAENDLYTTSIRFRLLREHGYNVSCDVFNKFKDEQGNFKSSVTSDVRGLLELYQASYLRVHGEDILDEAISFTTHHLSLAVASLDHPLSEEVSHALKQSIRRGLPRVEARHYLSVYQDIESHNKALLEFAKIDFNMLQFLHRKELSEICRWWKDLDFQRKLPYARDRVVEGYFWISGVYFEPQYSLGRKMLTKVIAMASIVDDTYDSYATYEELIPYTNAIERWDIKCIDEIPEYMKPSYKALLDVYEEMVQLVAEHGRQYRVEYAKNAMIRLAQSYLVEAKWTLQNYKPSFEEFKANALPTCGYAMLAITSFVGMGDIVTPETFKWAASDPKIIQASTIICRFMDDVAEHKFKHRREDDCSAIECYMEEYGVTAQEAYDVFNKHVESAWKDLNQEFLKPTEMPTEVLNRSLNLARVMDVLYREGDGYTYVGKAAKGGITSLLIEPIAL”, for which the “soluble on expression in E. coli” value is listed as “soluble”.

“MASRAPKEVPLCPLMTDGETRNVTDLPGPTNWPLLGSLLEIFWKGGLKKQHDTLAEYHKKYGQIFRMKLGSFDSVHLGSPSLLEALYRTESAHPQRLEIKPWKAYRDHRNEAYGLMILEGQEWQRVRSAFQKKLMKPVEIMKLDKKINEVLADFLERMDELCDERGRIPDLYSELNKWSFESICLVLYEKRFGLLQKETEEEALTFITAIKTMMSTFGKMMVTPVELHKRLNTKVWQAHTLAWDTIFKSVKPCIDNRLQRYSQQPGADFLCDIYQQDHLSKKELYAAVTELQLAAVETTANSLMWILYNLSRNPQAQRRLLQEVQSVLPDNQTPRAEDLRNMPYLKACLKESMRLTPSVPFTTRTLDKPTVLGEYALPKGTVLTLNTQVLGSSEDNFEDSHKFRPERWLQKEKKINPFAHLPFGIGKRMCIGRRLAELQLHLALCWIIQKYDIVATDNEPVEMLHLGILVPSRELPIAFRPR”: the “soluble on expression in E. coli” value is “soluble”.

The record behind these values is the DeepSol protein solubility set.
